Source: patent US20190365916A1 (Bayer, published 2019)
Changes are numbered by the printed parent chain.

B1: reference ADC R1x-9024 (anti-CXCR5 TPP-9024 coupled with Intermediate F104) (antibody, human IgG1, kappa, V domains shown)
VH: EVQLVESGGGLVQPGKSLKLSCSASGFTFSTSGMHWFRQAPGKGLDWVAYISSSSGFVYADAVKGRFTISRDNAQNTLYLQLNSLKSEDTAIYYCARSEAAFWGQGTLVTVSS
VL: DIVLTQAPRSVSVTPGESASISCRSNKSRLSRMGITPLNWYLQKPGKSPQLLIYRMSNLASGVPDRFSGSGSETDFTLKISKVETEDVGVYYCAQFLEYPPTFGSGTKLEIKR
modifications: reference KSP inhibitor toxophore-linker (from Intermediate F104) on sulfur atoms of cysteine side chains of the partially reduced antibody; DAR 3.7; positions not given
B2: reference ADC R1x-9574 (anti-CXCR5 TPP-9574 coupled with Intermediate F104) (antibody, human IgG1, kappa, V domains shown)
VH: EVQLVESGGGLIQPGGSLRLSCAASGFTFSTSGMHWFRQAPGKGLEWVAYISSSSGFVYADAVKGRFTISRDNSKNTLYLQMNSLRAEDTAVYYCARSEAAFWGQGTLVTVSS
VL: DIVMTQSPLSLPVTPGEPASISCRSQKSRLSRMGITPLNWYLQKPGQSPQLLIYRMSNLASGVPDRFSGSGSGTDFTLKISRVEAEDVGVYYCAQFLEYPPTFGQGTKLEIKR
modifications: reference KSP inhibitor toxophore-linker (from Intermediate F104) on sulfur atoms of cysteine side chains of the partially reduced antibody; DAR 3.9; positions not given
B3: reference ADC R1x-9580 (anti-CXCR5 TPP-9580 coupled with Intermediate F104) (antibody, human IgG1, kappa, V domains shown)
VH: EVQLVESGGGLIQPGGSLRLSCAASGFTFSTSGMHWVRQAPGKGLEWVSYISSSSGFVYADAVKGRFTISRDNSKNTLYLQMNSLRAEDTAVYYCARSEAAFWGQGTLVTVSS
VL: B2 VL
modifications: reference KSP inhibitor toxophore-linker (from Intermediate F104) on sulfur atoms of cysteine side chains of the partially reduced antibody; DAR 3.7; positions not given
B4: reference ADC R1c-9476 (anti-CD123 TPP-9476 coupled with Intermediate F104) (antibody, human IgG1, kappa, V domains shown)
VH: QVQLVQSGAEVKKPGSSVKVSCKASGGTFSDYYMKWVRQAPGQGLEWMGDIIPSNGATFYNQKFKGRVTITADESTSTAYMELSSLRSEDTAVYYCARSHLLRASWFAYWGQGTLVTVSS
VL: DIVMTQSPDSLAVSLGERATINCESSQSVLNSGNQKNYLTWYQQKPGQPPKLLIYWASTRESGVPDRFSGSGSGTDFTLTISSLQAEDVAVYYCQNDYSYPYTFGQGTKLEIKR
modifications: reference KSP inhibitor toxophore-linker (from Intermediate F104) on sulfur atoms of cysteine side chains of the partially reduced antibody; DAR 3.1; positions not given
B5: reference ADC R1c-8987 (anti-CD123 TPP-8987 coupled with Intermediate F104) (antibody, human IgG1, kappa, V domains shown)
VH: B4 VH with R67Q
VL: B4 VL
modifications: reference KSP inhibitor toxophore-linker (from Intermediate F104) on sulfur atoms of cysteine side chains of the partially reduced antibody; DAR 1.5; positions not given
B6: reference ADC R1c-8988 (anti-CD123 TPP-8988 coupled with Intermediate F104) (antibody, human IgG1, kappa, V domains shown)
VH: EVQLLESGGGLVQPGGSLRLSCAVSDYSITSGYYWNWIRQAPGKKLEWMGYISYDGSNNYNPSLKNGRITISRDTSKNTFYLQMNSLRAEDTAVYYCARGEGFYFDSWGQGTLVTVSS
VL: EIVLTQSPGTLSLSPGERATLSCKSSQSLFFGSTQKNYLAWYQQKPGQAPRLLIYWASTRESGIPDRFSGSGSGTDFTLTISRLEPEDFAVYYCQQYYNYPWTFGQGTKLEIKR
modifications: reference KSP inhibitor toxophore-linker (from Intermediate F104) on sulfur atoms of cysteine side chains of the partially reduced antibody; DAR 3.4; positions not given
B7: anti-CXCR5 antibody TPP-9024 (antibody, human IgG1, kappa, V domains shown)
VH: B1 VH
VL: B1 VL
notes: In the internalization assays it carried CypHer 5E dye on lysines
B8: anti-CXCR5 antibody TPP-9574 (antibody, human IgG1, kappa, V domains shown)
VH: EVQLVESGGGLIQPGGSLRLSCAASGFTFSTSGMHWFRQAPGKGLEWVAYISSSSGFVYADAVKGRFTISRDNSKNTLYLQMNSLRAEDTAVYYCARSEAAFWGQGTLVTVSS
VL: B2 VL
notes: Humanized anti-CXCR5 IgG; In the internalization assays it carried CypHer 5E dye on lysines
B9: anti-CXCR5 antibody TPP-9580 (antibody, human IgG1, kappa, V domains shown)
VH: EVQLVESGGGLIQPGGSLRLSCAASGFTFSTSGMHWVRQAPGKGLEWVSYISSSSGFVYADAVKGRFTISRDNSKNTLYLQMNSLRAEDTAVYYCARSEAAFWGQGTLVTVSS
VL: B2 VL
notes: as for B8
B10: anti-CD123 antibody TPP-8987 (antibody, human IgG1, kappa, V domains shown)
VH: B4 VH with R67Q
VL: B4 VL
notes: Humanized anti-CD123 IgG; In the internalization assays it carried CypHer 5E dye on lysines
B11: anti-CD123 antibody TPP-9476 (antibody, human IgG1, kappa, V domains shown)
VH: B4 VH
VL: B4 VL
notes: as for B10
B12: anti-CD123 antibody TPP-8988 (antibody, human IgG1, kappa, V domains shown)
VH: B6 VH
VL: B6 VL
notes: as for B10
B13: ADC Example 1x-9024 (anti-CXCR5 TPP-9024 coupled with Intermediate F325) (antibody, human IgG1, kappa, V domains shown)
VH: B1 VH
VL: B1 VL
modifications: KSP inhibitor toxophore-linker of formula (I) (from Intermediate F325) on sulfur atoms of cysteine side chains of the partially reduced antibody; DAR 3.8; positions not given
B14: ADC Example 1x-9580 (anti-CXCR5 TPP-9580 coupled with Intermediate F325) (antibody, human IgG1, kappa, V domains shown)
VH: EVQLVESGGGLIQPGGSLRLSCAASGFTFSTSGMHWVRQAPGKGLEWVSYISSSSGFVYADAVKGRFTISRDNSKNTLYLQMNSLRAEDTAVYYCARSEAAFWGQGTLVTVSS
VL: B2 VL
modifications: KSP inhibitor toxophore-linker of formula (I) (from Intermediate F325) on sulfur atoms of cysteine side chains of the partially reduced antibody; DAR 4.2; positions not given
B15: ADC Example 1x-9574 (anti-CXCR5 TPP-9574 coupled with Intermediate F325) (antibody, human IgG1, kappa, V domains shown)
VH: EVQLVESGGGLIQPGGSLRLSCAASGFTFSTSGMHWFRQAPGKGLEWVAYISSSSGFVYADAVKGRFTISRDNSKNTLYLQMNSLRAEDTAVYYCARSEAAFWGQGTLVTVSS
VL: B2 VL
modifications: KSP inhibitor toxophore-linker of formula (I) (from Intermediate F325) on sulfur atoms of cysteine side chains of the partially reduced antibody; DAR 4.1; positions not given
B16: ADC Example 1c-8987 (anti-CD123 TPP-8987 coupled with Intermediate F325) (antibody, human IgG1, kappa, V domains shown)
VH: B4 VH with R67Q
VL: B4 VL
modifications: KSP inhibitor toxophore-linker of formula (I) (from Intermediate F325) on sulfur atoms of cysteine side chains of the partially reduced antibody; DAR 3.7; positions not given
B17: ADC Example 1c-9476 (anti-CD123 TPP-9476 coupled with Intermediate F325) (antibody, human IgG1, kappa, V domains shown)
VH: B4 VH
VL: B4 VL
modifications: KSP inhibitor toxophore-linker of formula (I) (from Intermediate F325) on sulfur atoms of cysteine side chains of the partially reduced antibody; DAR 3.1; positions not given
B18: ADC Example 1c-8988 (anti-CD123 TPP-8988 coupled with Intermediate F325) (antibody, human IgG1, kappa, V domains shown)
VH: B6 VH
VL: B6 VL
modifications: KSP inhibitor toxophore-linker of formula (I) (from Intermediate F325) on sulfur atoms of cysteine side chains of the partially reduced antibody; DAR 3.5; positions not given

The binders below were run against T1, receptor protein CXCR5 (CD185) (human, UniProt P32302 1-372) (assay: cell-based or functional assay).
T1 sequence: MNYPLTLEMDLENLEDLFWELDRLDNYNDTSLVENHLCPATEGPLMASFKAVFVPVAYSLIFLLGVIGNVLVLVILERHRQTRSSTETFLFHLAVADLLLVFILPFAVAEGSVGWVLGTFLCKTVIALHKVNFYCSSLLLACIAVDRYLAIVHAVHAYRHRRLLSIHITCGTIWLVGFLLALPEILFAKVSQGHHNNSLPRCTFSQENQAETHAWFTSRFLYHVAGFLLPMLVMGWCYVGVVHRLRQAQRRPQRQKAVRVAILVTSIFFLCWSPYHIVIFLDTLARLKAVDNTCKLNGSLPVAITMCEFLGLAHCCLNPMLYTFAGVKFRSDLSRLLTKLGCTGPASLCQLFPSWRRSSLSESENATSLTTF

B1 and B2 are within 1.5-fold of each other in “IC50 [M] of growth inhibition, MTT assay, Rec-1 cells (CXCR5-positive)” value (shortened to “IC50 [M] of growth inhibition … (CXCR5-positive)”): 1.84e-10 M for the first, 2.62e-10 M for the second.

With B3 the “IC50 [M] of growth inhibition … (CXCR5-positive)” value was 7.16e-11 M.

These binders were tested against T2, surface receptor CD123 (IL3RA) (human, UniProt P26951 19-378) (assay: cell-based or functional assay).
T2 sequence (P26951 19-378 limits assumed): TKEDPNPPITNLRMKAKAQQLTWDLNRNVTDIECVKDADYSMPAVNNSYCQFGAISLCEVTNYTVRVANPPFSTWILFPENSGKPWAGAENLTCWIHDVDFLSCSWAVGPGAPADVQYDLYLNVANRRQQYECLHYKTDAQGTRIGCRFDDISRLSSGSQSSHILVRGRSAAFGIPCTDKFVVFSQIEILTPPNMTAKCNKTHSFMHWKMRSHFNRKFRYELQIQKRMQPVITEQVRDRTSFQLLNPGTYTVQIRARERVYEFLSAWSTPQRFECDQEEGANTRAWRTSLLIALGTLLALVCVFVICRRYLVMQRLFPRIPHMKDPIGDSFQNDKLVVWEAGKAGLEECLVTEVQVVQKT

Going from B4 to B5, the “IC50 [M] of growth inhibition, MTT assay, MOLM-13 cells (CD123-positive)” value rises from 3.04e-10 M to 7.57e-08 M (250-fold).

For B6, the “IC50 [M] of growth inhibition, MTT assay, MOLM-13 cells (CD123-positive)” value was 4.26e-09 M.

First: B4
Second: B5
The “IC50 [M] of growth inhibition, MTT assay, MV-4-11 cells (CD123-positive)” value of the first is 25-fold lower: 5.3e-09 M for the first, 1.33e-07 M for the second.

B6 was tested, and the “IC50 [M] of growth inhibition, MTT assay, MV-4-11 cells (CD123-positive)” value was 3.27e-08 M.

These binders were tested against T1, receptor protein CXCR5 (CD185) (assay: cell binding assay, CypHer 5E-labelled against unlabelled antibody).

B7: binds.
B8: binds.
B9: binds.

The binders below were run against T2, surface receptor CD123 (IL3RA) in the same assay as above.

B10: binds.
B11: binds.
B12: binds.

Target: T1, receptor protein CXCR5 (CD185)
Test: cell-based or functional assay
Remark: another data set of the same source

Going from B13 to B14, the “IC50 [M] of growth inhibition … (CXCR5-positive)” value rises from 1.34e-10 M to 2.78e-09 M (21-fold).

In the case of B15, the “IC50 [M] of growth inhibition … (CXCR5-positive)” value is reported as 2.94e-11 M.

Target: T2, surface receptor CD123 (IL3RA)
Test: cell-based or functional assay
Remark: another data set of the same source

B16 and B17 are within 1.5-fold of each other in “IC50 [M] of growth inhibition, MTT assay, MOLM-13 cells (CD123-positive)” value: 2.1e-10 M for the first, 2.85e-10 M for the second.

With B18 the “IC50 [M] of growth inhibition, MTT assay, MOLM-13 cells (CD123-positive)” value was 3.02e-11 M.

Going from B16 to B17, the “IC50 [M] of growth inhibition, MTT assay, MV-4-11 cells (CD123-positive)” value rises from 1.26e-09 M to 2.78e-09 M (2.2-fold).

With B18 the “IC50 [M] of growth inhibition, MTT assay, MV-4-11 cells (CD123-positive)” value was 2.94e-08 M.
